Source: US20240141072A1 (published 2024)
Substitutions are numbered along the chain they refer to.

T1: biotinylated human DLL3 protein expressed as a human IgG1 fusion protein (human, UniProt Q9NYJ7 27-492, limits assumed, biotinylated)
T1 sequence: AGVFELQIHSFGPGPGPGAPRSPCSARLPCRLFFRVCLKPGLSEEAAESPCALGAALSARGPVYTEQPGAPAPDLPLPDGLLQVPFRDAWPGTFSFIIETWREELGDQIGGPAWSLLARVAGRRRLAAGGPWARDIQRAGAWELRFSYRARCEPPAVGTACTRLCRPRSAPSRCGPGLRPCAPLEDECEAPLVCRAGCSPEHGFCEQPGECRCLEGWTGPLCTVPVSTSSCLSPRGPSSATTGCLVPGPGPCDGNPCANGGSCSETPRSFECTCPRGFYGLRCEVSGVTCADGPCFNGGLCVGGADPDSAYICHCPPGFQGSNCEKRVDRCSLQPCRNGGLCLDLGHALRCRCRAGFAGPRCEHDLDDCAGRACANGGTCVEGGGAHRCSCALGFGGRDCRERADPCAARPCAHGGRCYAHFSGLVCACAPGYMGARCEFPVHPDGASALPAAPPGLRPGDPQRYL

B1: 4A01 anti-DLL3 trispecific protein (other)
chain: EVQLVESGGGLVQPGGSLTLSCAASGSSVRFLSMAWYRQAPGKKRELVAGISQDGSTDYIDSVKGRFTISRDNAKNSVYLQMNSLRAEDTAVYYCYAYRWRTRYTYWGQGTLVTVSS
notes: not shown: linker 1808, anti-albumin sdAb, linker 1808, anti-CD3 fragment, His6 1819
B2: 4C05 anti-DLL3 trispecific protein (other)
chain: B1 chain with R30S, F31N, Q53A, D58A, R101T, Y104R
notes: as for B1
B3: 4G08 anti-DLL3 trispecific protein (other)
chain: B1 chain with Q53T, R101T, T105R
notes: as for B1
B4: 4H01 anti-DLL3 trispecific protein (other)
chain: B1 chain with R30S, Q53A, D54N, I60Y
notes: as for B1
B5: 4A08 anti-DLL3 trispecific protein (other)
chain: B1 chain with R30S, Q53A, D58N
notes: as for B1
B6: 4C010 anti-DLL3 trispecific protein (other)
chain: B1 chain with S28K, R30S, L32M, Q53A, R101T, Y104L
notes: as for B1
B7: 4B02 anti-DLL3 trispecific protein (other)
chain: B1 chain with S28R, R30S, Q53A, D58T, R101T, Y104F
notes: as for B1
B8: 4B04 anti-DLL3 trispecific protein (other)
chain: B1 chain with R30L, I51V, Q53S
notes: as for B1
B9: 4D05 anti-DLL3 trispecific protein (other)
chain: B1 chain with V29S, R30S, Q53A, D58V, R101T, Y104R
notes: as for B1
B10: 4D08 anti-DLL3 trispecific protein (other)
chain: B1 chain with R30N, Q53A, D58H, R101L
notes: as for B1
B11: 4A09 anti-DLL3 trispecific protein (other)
chain: B1 chain with R30K, Q53A, D61G, R101T, Y104V
notes: as for B1
B12: 4G011 anti-DLL3 trispecific protein (other)
chain: B1 chain with Q53A, D61G, R101S
notes: as for B1
B13: 4E011 anti-DLL3 trispecific protein (other)
chain: B1 chain with R30S, Q53A, D54T, R101S
notes: as for B1
B14: 4C07 anti-DLL3 trispecific protein (other)
chain: B1 chain with S28K, R30S, Q53A, T57K, R101T, Y104L
notes: as for B1
B15: 4F010 anti-DLL3 trispecific protein (other)
chain: B1 chain with R30S, Q53I, D61K, R101T, T105R
notes: as for B1
B16: 4E01 anti-DLL3 trispecific protein (other)
chain: B1 chain with R30S, M34V, Q53R
notes: as for B1
B17: 4G02 anti-DLL3 trispecific protein (other)
chain: B1 chain with R30K, Q53R, R101T, Y104H
notes: as for B1
B18: 4E08 anti-DLL3 trispecific protein (other)
chain: B1 chain with R30K, Q53T, R99K, R101T
notes: as for B1
B19: 4E09 anti-DLL3 trispecific protein (other)
chain: B1 chain with R30S, M34S, Q53A, D58L, R101T, Y104S
notes: as for B1
B20: 4D04 anti-DLL3 trispecific protein (other)
chain: B1 chain with R30S, M34I, Q53K, R101T, Y104M
notes: as for B1
B21: 4F04 anti-DLL3 trispecific protein (other)
chain: B1 chain with G26R, R30S, Q53T, R101L
notes: as for B1
B22: 4F08 anti-DLL3 trispecific protein (other)
chain: B1 chain with S28K, R30S, Q53A, D58A
notes: as for B1
B23: 4E06 anti-DLL3 trispecific protein (other)
chain: B1 chain with S27T, R30S, Q53A, D61R, R101T, Y104L
notes: as for B1
B24: 4A05 anti-DLL3 trispecific protein (other)
chain: B1 chain with R30S, M34L, Q53A, R101K, Y104R
notes: as for B1
B25: 4F02 anti-DLL3 trispecific protein (other)
chain: B1 chain with S28T, R30S, Q53H, R101T
notes: as for B1
B26: 4G010 anti-DLL3 trispecific protein (other)
chain: B1 chain with S27H, R30S, Q53A, D61A, R101S
notes: as for B1
B27: 4H03 anti-DLL3 trispecific protein (other)
chain: B1 chain with S28R, R30S, Q53A, D58S, R101T
notes: as for B1
B28: 4A04 anti-DLL3 trispecific protein (other)
chain: B1 chain with S28R, R30S, Q53A, D54R, R101S
notes: as for B1
B29: 4D03 anti-DLL3 trispecific protein (other)
chain: B1 chain with Q53A, D54T, R101T, T102R
notes: as for B1
B30: 4C03 anti-DLL3 trispecific protein (other)
chain: B1 chain with S28K, R30S, L32M, Q53V
notes: as for B1
B31: 4B09 anti-DLL3 trispecific protein (other)
chain: B1 chain with R30S, Q53A, D61S, R99S, R101T
notes: as for B1
B32: 4B06 anti-DLL3 trispecific protein (other)
chain: B1 chain with S28R, R30S, Q53A, I60F, R101T, T102R
notes: as for B1
B33: 4A02 anti-DLL3 trispecific protein (other)
chain: B1 chain with Q53N, R101K
notes: as for B1
B34: 4C08 anti-DLL3 trispecific protein (other)
chain: B1 chain with A23V, S28Q, R30S, Q53A, I60F, R101T, T102R
notes: as for B1
B35: 4D06 anti-DLL3 trispecific protein (other)
chain: B1 chain with R30K, Q53P, R101T, T105R
notes: as for B1
B36: 4F011 anti-DLL3 trispecific protein (other)
chain: B1 chain with S28K, R30S, Q53A, T57K, R101T
notes: as for B1
B37: 4B01 anti-DLL3 trispecific protein (other)
chain: B1 chain with R30K, Q53R, R101T, Y104F
notes: as for B1
B38: 4F03 anti-DLL3 trispecific protein (other)
chain: B1 chain with R30Q, Q53Y
notes: as for B1
B39: 4G07 anti-DLL3 trispecific protein (other)
chain: B1 chain with R30S, M34V, Q53A, D54N, R101T, T102N
notes: as for B1
B40: 4A010 anti-DLL3 trispecific protein (other)
chain: B1 chain with Q53A, D58V, R101T, T105K
notes: as for B1
B41: 4B05 anti-DLL3 trispecific protein (other)
chain: B1 chain with S28R, R30S, Q53A, S56H, R101T, Y106H
notes: as for B1
B42: 4D01 anti-DLL3 trispecific protein (other)
chain: B1 chain with Q53A, D58V, R101T, Y104R
notes: as for B1
B43: 4E07 anti-DLL3 trispecific protein (other)
chain: B1 chain with S28R, R30S, Q53A, D58M, R101T, Y104L
notes: as for B1
B44: 4C011 anti-DLL3 trispecific protein (other)
chain: B1 chain with S28R, R30S, Q53A, D58V, R101T, T102R
notes: as for B1
B45: 4A06 anti-DLL3 trispecific protein (other)
chain: B1 chain with Q53R, R101T, Y104R
notes: as for B1
B46: 4G03 anti-DLL3 trispecific protein (other)
chain: B1 chain with R30K, Q53A, D61H, R101T, T102R
notes: as for B1
B47: 4G05 anti-DLL3 trispecific protein (other)
chain: B1 chain with R30S, F31I, Q53A, D58I, R101H
notes: as for B1
B48: 4A07 anti-DLL3 trispecific protein (other)
chain: B1 chain with S28K, R30S, Q53A, D58L, R101T, T105R
notes: as for B1
B49: 4C01 anti-DLL3 trispecific protein (other)
chain: B1 chain with Q53A, D58V, R101K
notes: as for B1
B50: 4B08 anti-DLL3 trispecific protein (other)
chain: B1 chain with R30S, L32M, Q53A, D61A, R101T, Y104S
notes: as for B1
B51: 4A011 anti-DLL3 trispecific protein (other)
chain: B1 chain with S28K, R30S, Q53A, D58T, R101K
notes: as for B1
B52: 4D010 anti-DLL3 trispecific protein (other)
chain: B1 chain with R30S, Q53A, D61H
notes: as for B1
B53: 4F09 anti-DLL3 trispecific protein (other)
chain: B1 chain with S28R, R30S, Q53A, D61E, R101T
notes: as for B1
B54: 4G01 anti-DLL3 trispecific protein (other)
chain: B1 chain with Q53A, D58V, R101P
notes: as for B1
B55: 4D02 anti-DLL3 trispecific protein (other)
chain: B1 chain with S28K, R30S, Q53A, D54R, R99Q, R101T
notes: as for B1
B56: 4C02 anti-DLL3 trispecific protein (other)
chain: B1 chain with S28K, R30S, Q53A, D58T, R101T, Y104F
notes: as for B1
B57: 4G09 anti-DLL3 trispecific protein (other)
chain: B1 chain with S28R, R30S, Q53Y, R101T, Y104R
notes: as for B1
B58: 4E010 anti-DLL3 trispecific protein (other)
chain: B1 chain with R30K, Q53A
notes: as for B1

Each binder was assayed against T1, biotinylated human DLL3 protein … (assay: Octet BLI, single 50 nM).
Method in brief: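 Analyte: trispecific anti-DLL3 proteins in conditioned medium, concentration known; ligand: captured DLL3 fusion; output: binding affinity.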

Kd	Binder
10 nM	B1
8.3 nM	B2
7.6 nM	B3
21 nM	B4
24 nM	B5
7 nM	B6
7.1 nM	B7
12 nM	B8
6.5 nM	B9
5.9 nM	B10
9 nM	B11
7.5 nM	B12
13 nM	B13
7.5 nM	B14
5.8 nM	B15
11 nM	B16
15 nM	B17
7.2 nM	B18
9.1 nM	B19
8.6 nM	B20

Kd	Binder
9.8 nM	B21
9 nM	B22
10 nM	B23
9.4 nM	B24
15 nM	B25
9.9 nM	B26
13 nM	B27
35 nM	B28
26 nM	B29
6.6 nM	B30
5.4 nM	B31
16 nM	B32
9 nM	B33
16 nM	B34
7.5 nM	B35
8.2 nM	B36
11 nM	B37
12 nM	B38
18 nM	B39
2.3 nM	B40

Kd	Binder
18 nM	B41
3.7 nM	B42
11 nM	B43
6 nM	B44
13 nM	B45
20 nM	B46
9.7 nM	B47
9.8 nM	B48
5.1 nM	B49
10 nM	B50
5.6 nM	B51
9.9 nM	B52
8.8 nM	B53
3.6 nM	B54
30 nM	B55
6.8 nM	B56
8.8 nM	B57
9 nM	B58
